From patent US5580854A, “Substrate-related peptidyl-aldehyde inhibitors of the proteolytic activity of the multicatalytic proteinase complex” (Mount Sinai School of Medicine of The City University of …, priority 1994, dated 1996)

Experiments:
Test in all cases: Kinetic parameters for degradation of synthetic substrates by the BrAAP component
Format in all cases: biochemical, bovine
[1] = substrate: CC(C)C[C@H](NC(=O)OCc1ccccc1)C(=O)NCC(=O)N[C@@H](C)C(=O)N[C@@H](CC(C)C)C(=O)N[C@@H](C)C(=O)Nc1ccc(C(=O)O)cc1; settings: other: [S] 1.6-8.0; mean of 2 determinations; from plots of 1/v vs 1/s
Text: (§1) A coupled two step reaction in the presence of excess aminopeptidase N (AN) was used for the determination of the BrAAP and SNAAP activities as described previously (Orlowski et al., Biochemistry 32:1563-1572 (1993)). Aminopeptidase N was purified from hog kidneys as described by Pfleiderer, Meth. Enzymol. 19:514-521 (1970) and freed from the contaminating metalloendopeptidase (EC 3.4.24.11) as previously described (Almenoff & Orlowski, Biochemistry 22:590-599 (1983)).
(§2) The flexibility of the amino acid residue in the P4 position of the inhibitors of the present invention is based on results of substrate specificity studies of the BrAAP component. Activities towards various analogs of the prototypic BrAAP substrate Cbz-Gly-Pro-Ala-Leu-Gly-pAB were determined using the coupled two-step reaction carried out in the presence of AN, as described in Example 4. The BrAAP substrates tested included the following:
(§3) Data represent mean values for 2 separate determinations. For substrates
(§4) with MichaelisMenten kinetics, Km and kcat were determined from
(§5) the regression line fitted to plots of 1/v vs 1/s. Kcat was estimate
(§6) assuming a molecular mabs of 700 KDa and assuming one active site per
(§7) molecule. […] The apparent Km for
(§8) this substrate is taken as the substrate concentration at half of the
(§9) Vmax observed. kcat for this substrate was calculated assuming
(§10) Vmax of 300 U/mg and assuming one active site per molecule of MPC.

[2] = substrate: CC(C)C[C@H](NC(=O)[C@H](C)NC(=O)CNC(=O)CNC(=O)OCc1ccccc1)C(=O)N[C@@H](C)C(=O)Nc1ccc(C(=O)O)cc1; settings: other: [S] 0.8-4.8; sigmoidal kinetics; substrate concentration at half of the Vmax observed
Text: as §1, §2, §3, §4, §5, §6, §7, §8, §9, §10

[3] = substrate: CC(C)C[C@H](NC(=O)[C@H](C)NC(=O)CNC(=O)[C@@H]1CCCN1C(=O)OCc1ccccc1)C(=O)N[C@@H](C)C(=O)Nc1ccc(C(=O)O)cc1; settings: other: [S] 1.6-8.0; mean of 2 determinations; from plots of 1/v vs 1/s
Text: as §1, §2, §3, §4, §5, §6, §7, §8, §9, §10

B1: BRAAP component of the MPC (Bos taurus) (protein)
chain 1: TTTLAFKFRHGVIVAADSRATAGAYIASQTVKKVIEINPYLLGTMAGGAADCSFWERLLARQCRIYELRNKERISVAAASKLLANMVYQYKGMGLSMGTMICGWDKRGPGLYYVDSEGNRISGATFSVGSGSVYAYGVMDRGYSYDLEVEEAYDLARRAIYQATYRDAYSGGSVSLYHVREDGWIRVSSDNVADLHDKYSGSTH
chain 2: TTIMAVQFDGGVVLGADSRTTTGSYIANRVTDKLTPIHDRIFCCRSGSAADTQAVADAVTYQLGFHSIELNEPPLVHTAASLFKEMCYRYREDLMAGIIIAGWDPQEGGQVYSVPMGGMMVRQPFAIGGSGSSYIYGYVDATYREGMTKEECLQFTANALALAMERDGSSGGVIRLAAIAEPGVERQVLLGDQIPKFTIATLPPL
chain 3: TTIAGVVYKDGIVLGADTRATEGMVVADKNCSKIHFISPNIYCCGAGTAADTDMTTQLISSNLELHSLSTGRLPRVVTANRMLKQMLFRYQGYIGAALVLGGVDVTGPHLYSIYPHGSTDKLPYVTMGSGSLAAMAVFEDKFRPDMEEEEAKKLVSEAIAAGIFNDLGSGSNIDLCVISKSKLDFLRPYSVPNKKGTRFGRYRCEKGTNAVLTEKVTTLEIEVLEETVQTMDTS
notes: The MPC was isolated from frozen bovine pituitaries; tissue PelFreeze, Inc. (Rogers, Ark.) (supplier of the tissue; the enzyme was purified in house); host or cells: bovine pituitaries
[1]
  Km: 30 mM
  kcat: 24 s⁻¹
  kcat/Km: 820 M⁻¹ s⁻¹
[2]
  Km: 2.5 mM
  kcat: 58 s⁻¹
  kcat/Km: 23,300 s^-1 M^-1
[3]
  Km: 8.7 mM
  kcat: 8.4 s⁻¹
  kcat/Km: 960 M⁻¹ s⁻¹
